# Results as given in patent US20040048377A1.
# Target: mouse Grg4 (mouse) (UniProt Q62441)
# Experiment: cell-based or functional assay
# Sequence of mouse Grg4 (mouse) (Q62441 whole entry): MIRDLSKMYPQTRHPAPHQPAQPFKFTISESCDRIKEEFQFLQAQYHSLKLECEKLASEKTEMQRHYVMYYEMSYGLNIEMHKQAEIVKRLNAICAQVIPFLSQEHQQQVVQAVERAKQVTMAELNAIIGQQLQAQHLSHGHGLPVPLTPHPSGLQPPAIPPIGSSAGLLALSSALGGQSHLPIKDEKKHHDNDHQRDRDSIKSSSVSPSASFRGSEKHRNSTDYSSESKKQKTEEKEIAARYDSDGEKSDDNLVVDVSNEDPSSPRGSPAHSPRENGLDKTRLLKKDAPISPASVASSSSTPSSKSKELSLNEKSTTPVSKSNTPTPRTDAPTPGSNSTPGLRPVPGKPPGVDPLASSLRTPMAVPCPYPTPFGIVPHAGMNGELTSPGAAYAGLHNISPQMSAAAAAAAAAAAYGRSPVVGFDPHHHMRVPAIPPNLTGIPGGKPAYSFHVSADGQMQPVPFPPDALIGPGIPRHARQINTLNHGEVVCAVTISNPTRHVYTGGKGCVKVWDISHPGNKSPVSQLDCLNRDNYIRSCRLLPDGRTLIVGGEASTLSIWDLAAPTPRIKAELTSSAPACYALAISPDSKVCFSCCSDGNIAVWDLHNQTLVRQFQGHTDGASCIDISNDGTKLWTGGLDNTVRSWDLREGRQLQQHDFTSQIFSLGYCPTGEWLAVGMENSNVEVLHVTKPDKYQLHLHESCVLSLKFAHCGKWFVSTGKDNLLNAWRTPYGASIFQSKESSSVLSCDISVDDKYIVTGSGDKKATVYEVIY
# Sequence of mouse Grg4 (Q62441 whole entry): as above
row,Substance,"repressor activity in the UAS-luciferase reporter assay in COS-7 cells, with increasing amounts of co-transfected Grg4 [fold]"
1,Gal-Nkx2.2 (full-length Nkx2.2 fused to the DNA binding domain of yeast Gal4) (from UniProt P04386 1-147),< 10
2,Gal-Nkx6.1 (full-length Nkx6.1 fused to the DNA binding domain of yeast Gal4) (from UniProt P04386 1-147; O35762 1-365),< 10

# Continued, values first:
row,"repressor activity in the UAS-luciferase reporter assay in COS-7 cells, with increasing amounts of co-transfected Grg4 [fold]",Substance
1,< 10,Gal-Nkx2.9 (full-length Nkx2.9 fused to the DNA binding domain of yeast Gal4) (from UniProt P04386 1-147; O70584 1-235)
2,2,Gal-Nkx6.1ΔTN (Nkx6.1 lacking aa 90-113 fused to the DNA binding domain of yeast Gal4) (from UniProt P04386 1-147; O35762 1-89; O35762 114-365)
3,< 10,Gal-Nkx6.2 (full-length Nkx6.2 fused to the DNA binding domain of yeast Gal4) (from UniProt P04386 1-147; P43688 1-289)
4,2,Gal-Nkx6.2ΔTN (Nkx6.2 lacking aa 2-73 fused to the DNA binding domain of yeast Gal4) (from UniProt P04386 1-147)

# Target: Nkx6.1ΔTN (Nkx6.1 with the TN domain deleted, Δaa 90-113) (rat) (UniProt O35762)
# Experiment: immuno-precipitation, 35S-labelled Grg4, Nkx protein on antibody-proteinA-sepharose
# Sequence of Nkx6.1ΔTN (Nkx6.1 with the TN domain deleted, Δaa 90-113) (rat) (O35762 other isoform, or with tags, fused parts or gaps mutant): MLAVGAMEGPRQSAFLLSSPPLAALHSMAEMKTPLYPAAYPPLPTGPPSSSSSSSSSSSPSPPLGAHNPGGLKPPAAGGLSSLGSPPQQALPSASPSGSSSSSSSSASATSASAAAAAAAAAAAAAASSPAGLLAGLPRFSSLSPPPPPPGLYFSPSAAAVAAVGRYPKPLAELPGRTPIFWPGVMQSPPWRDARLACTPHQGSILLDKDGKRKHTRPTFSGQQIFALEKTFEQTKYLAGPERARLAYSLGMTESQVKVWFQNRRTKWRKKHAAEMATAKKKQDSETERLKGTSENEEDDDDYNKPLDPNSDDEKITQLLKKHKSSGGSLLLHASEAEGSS
row,fold reduction of the interaction with Grg4 compared to the full-length protein [fold],Substance
1,5,mouse Grg4 (from UniProt Q62441 1-773)
